Read-outs that look alike come from different tables or passages of the source. Marks after values point to notes of the source that are not given here.
Assays:
[1] = human, in vivo
[2] = system: patients with relapsed or refractory multiple myeloma; test: COLUMBA randomized non-inferiority study, DARZALEX FASPRO monotherapy versus intravenous daratumumab;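 note: randomized arms stratified by body weight, myeloma type and count of earlier treatment lines, enrolled patients having a median of 4 previous lines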
Description: The major efficacy outcome measures were ORR by the IMWG response criteria and maximum Ctrough at pre-dose Cycle 3 Day 1 [see Clinical Pharmacology (12.3)]. Randomization was stratified by body weight, myeloma type, and number of prior lines of therapy.
Patients had received a median of 4 prior lines of therapy. […] Forty-nine percent of patients were refractory both a PI and an immunomodulatory agent. Eighty-two percent of patients were refractory to their last line of prior systemic therapy.

[3] = molecular target: T1, CD38 on red blood cells (RBCs) (Homo sapiens, UniProt P28907); test: Interference with serological testing (Indirect Antiglobulin Test)
T1 construct: endogenous in cells; host or cells: red blood cells (patient / reagent RBCs)
Description: Since the Kell blood group system is also sensitive to DTT treatment, supply K-negative units after ruling out or identifying alloantibodies using DTT-treated RBCs.

[4] = Daratumumab pharmacokinetics in patients with light chain (AL) amyloidosis; type: in vivo, human
monkeys = test: Hyaluronidase given subcutaneously to monkeys (systemic exposure, reproductive tissues); type: in vivo
Method: No carcinogenicity, genotoxicity, or fertility studies were conducted for recombinant human hyaluronidase. […] As hyaluronidase is a recombinant form of the endogenous human hyaluronidase, no carcinogenicity, mutagenesis, or effects on fertility are expected.

[5] = system: pregnant mice and offspring; test: Hyaluronidase developmental toxicity in mice; type: in vivo
Description: There were no effects on pre- and post-natal development through sexual maturity in offspring of mice treated daily from implantation through lactation with 990,000 U/kg hyaluronidase subcutaneously, which is 134 times higher than the human doses.

[6] = All Grades, worsening from baseline
[7] = monkeys given 22,000 U/kg/week subcutaneously for 39 weeks

Molecule: Intravenous Daratumumab: daratumumab 16 mg/kg administered intravenously
- Observed mean ± SD max Ctrough after 8th dose [1]: 522 ± 226^a,b μg/mL
- Back pain ([2]; All Grades): 12%
- Chills ([2]; All Grades): 12%
- Cough ([2]; All Grades): 14%
- Diarrhea ([2]; All Grades): 11%
- Dyspnea ([2]; All Grades): 11%
- Fatigue ([2]; All Grades): 16%
- Infusion reactions ([2]; All Grades): 34%
- Nausea ([2]; All Grades): 11%
- Pneumonia ([2]; All Grades): 10%
- Pyrexia ([2]; All Grades): 13%
- Decreased hemoglobin [2, 6]: 39%
- Decreased leukocytes [2, 6]: 57%
- Decreased lymphocytes [2, 6]: 56%
- Decreased neutrophils [2, 6]: 43%
- Decreased platelets [2, 6]: 45%
- Back pain ([2]; Grade ≥3): 3^# %
- Chills ([2]; Grade ≥3): 1^# %
- Cough ([2]; Grade ≥3): 0%
- Diarrhea ([2]; Grade ≥3): 0.4^# %
- Dyspnea ([2]; Grade ≥3): 1^# %
- Fatigue ([2]; Grade ≥3): 2^# %
- Infusion reactions ([2]; Grade ≥3): 5^# %
- Nausea ([2]; Grade ≥3): 0.4^# %
- Pneumonia ([2]; Grade ≥3): 6^@ %
- Pyrexia ([2]; Grade ≥3): 1^# %
- Decreased hemoglobin ([2]; Grades 3-4): 16%
- Decreased leukocytes ([2]; Grades 3-4): 14%
- Decreased lymphocytes ([2]; Grades 3-4): 36%
- Decreased neutrophils ([2]; Grades 3-4): 11%
- Decreased platelets ([2]; Grades 3-4): 14%
- CR or better ([2]; in vivo): (2.7%)
- Median progression-free survival ([2]; in vivo): 6.1 months
- Partial response (PR) ([2]; in vivo): (20%)
- Very good partial response (VGPR) ([2]; in vivo): (14%)
- Overall response (sCR + CR + VGPR + PR) ([2]; intent-to-treat population): (37%)

Molecule: Daratumumab: immunoglobulin G1 kappa (IgG1κ) human monoclonal antibody that binds to the CD38 antigen; heavy chain SEQ ID NO: 12, light chain SEQ ID NO: 13
- estimated mean elimination half-life associated with linear clearance [1]: 20 days
- estimated mean linear clearance [1]: 119 mL/day
- estimated mean volume of distribution for the central compartment [1]: 5.2 L
- estimated mean volume of distribution, peripheral compartment [1]: 3.8 L
- pharmacokinetics in geriatric patients compared to younger adult patients [1]: No clinically meaningful differences
- Indirect Antiglobulin Test (Indirect Coombs test) [3]: positive
- persistence of positive indirect antiglobulin test after the last administration [3]: up to 6 months
- estimated mean volume of distribution ([4]; CV 28%): 10.8 L
- estimated mean linear clearance ([4]; CV 42%): 210 mL/day
- estimated mean elimination half-life associated with linear clearance ([4]; CV 74%): 28 days

B1: hyaluronidase: recombinant hyaluronidase rHuPH20 having the amino acid sequence of SEQ ID NO: 22 (protein, listed as Homo sapiens)
chain: LNFRAPPVIPNVPFLWAWNAPSEFCLGKFDEPLDMSLFSFIGSPRINATGQGVTIFYVDRLGYYPYIDSITGVTVNGGIPQKISLQDHLDKAKKDITFYMPVDNLGMAVIDWEEWRPTWARNWKPKDVYKNRSIELVQQQNVQLSLTEATEKAKQEFEKAGKDFLVETIKLGKLLRPNHLWGYYLFPDCYNHHYKKPGYNGSCFNVEIKRNDDLSWLWNESTALYPSIYLNTQQSPVAATLYVRNRVREAIRVSKIPDAKSPLPVFAYTRIVFTDQVLKFLSQDELVYTFGETVALGASGIVIWGTLSIMRSMKSCLLLDNYMETILNPYIINVTLAAKMCSQVLCQEQGVCIRKNWNSSDYLHLNPDNFAIQLEKGGKFTVRGKPTLEDLEQFSEKFYCSCYSTLSCKEKADVKDTDAVDVCIADGVCIDAFLKPPMETEEPQIFY
- systemic exposure of hyaluronidase (monkeys; monkeys given 22,000 U/kg subcutaneously): No systemic exposure
- effects on reproductive tissues and function (monkeys; [7]): no effects
- systemic exposure of hyaluronidase (monkeys; [7]): no systemic exposure
- effects on post-natal development through sexual maturity in offspring ([5]; mice treated daily during lactation with 990,000 U/kg subcutaneously): no effects
- effects on pre- and post-natal development through sexual maturity in offspring ([5]; mice treated daily from implantation through lactation with 990,000 U/kg subcutaneously): no effects
- effects on embryo-fetal development ([5]; pregnant mice given 330,000 U/kg subcutaneously daily during organogenesis): no effects
